# T1: EDDF3, carboxy domain of EDD (aa 1877-2799) (human, UniProt O95071 1877-2799)
# T1 construct: In vitro translated, 35S-labelled; also called carboxy third; carboxy terminal region of EDD
# T1 sequence: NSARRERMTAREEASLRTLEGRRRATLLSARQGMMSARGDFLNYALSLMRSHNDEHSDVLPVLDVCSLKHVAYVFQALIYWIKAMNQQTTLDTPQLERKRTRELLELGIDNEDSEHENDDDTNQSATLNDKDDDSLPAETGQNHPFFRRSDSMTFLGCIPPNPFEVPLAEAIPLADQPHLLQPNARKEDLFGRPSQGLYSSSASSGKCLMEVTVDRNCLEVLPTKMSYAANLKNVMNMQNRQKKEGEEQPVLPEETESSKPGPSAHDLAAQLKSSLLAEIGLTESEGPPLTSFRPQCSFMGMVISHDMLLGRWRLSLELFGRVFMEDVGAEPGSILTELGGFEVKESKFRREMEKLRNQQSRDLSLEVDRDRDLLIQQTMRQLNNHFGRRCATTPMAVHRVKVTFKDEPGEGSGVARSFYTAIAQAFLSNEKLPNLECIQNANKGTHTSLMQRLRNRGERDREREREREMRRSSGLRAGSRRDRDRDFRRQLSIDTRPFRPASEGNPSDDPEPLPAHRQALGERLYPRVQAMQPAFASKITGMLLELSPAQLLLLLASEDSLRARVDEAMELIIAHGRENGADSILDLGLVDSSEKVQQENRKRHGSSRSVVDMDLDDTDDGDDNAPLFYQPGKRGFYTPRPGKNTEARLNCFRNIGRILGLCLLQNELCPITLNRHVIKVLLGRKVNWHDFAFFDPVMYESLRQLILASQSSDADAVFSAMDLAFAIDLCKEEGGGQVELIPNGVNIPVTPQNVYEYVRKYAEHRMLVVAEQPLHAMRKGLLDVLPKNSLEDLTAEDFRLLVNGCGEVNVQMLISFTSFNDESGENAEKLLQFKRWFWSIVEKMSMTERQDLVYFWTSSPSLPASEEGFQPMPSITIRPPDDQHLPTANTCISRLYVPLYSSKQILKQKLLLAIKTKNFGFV
# T2: EDDF2, central domain of EDD (aa 889-1877) (human, UniProt O95071 889-1877)
# T2 construct: In vitro translated, 35S-labelled; also called central third; central region of EDD
# T2 sequence: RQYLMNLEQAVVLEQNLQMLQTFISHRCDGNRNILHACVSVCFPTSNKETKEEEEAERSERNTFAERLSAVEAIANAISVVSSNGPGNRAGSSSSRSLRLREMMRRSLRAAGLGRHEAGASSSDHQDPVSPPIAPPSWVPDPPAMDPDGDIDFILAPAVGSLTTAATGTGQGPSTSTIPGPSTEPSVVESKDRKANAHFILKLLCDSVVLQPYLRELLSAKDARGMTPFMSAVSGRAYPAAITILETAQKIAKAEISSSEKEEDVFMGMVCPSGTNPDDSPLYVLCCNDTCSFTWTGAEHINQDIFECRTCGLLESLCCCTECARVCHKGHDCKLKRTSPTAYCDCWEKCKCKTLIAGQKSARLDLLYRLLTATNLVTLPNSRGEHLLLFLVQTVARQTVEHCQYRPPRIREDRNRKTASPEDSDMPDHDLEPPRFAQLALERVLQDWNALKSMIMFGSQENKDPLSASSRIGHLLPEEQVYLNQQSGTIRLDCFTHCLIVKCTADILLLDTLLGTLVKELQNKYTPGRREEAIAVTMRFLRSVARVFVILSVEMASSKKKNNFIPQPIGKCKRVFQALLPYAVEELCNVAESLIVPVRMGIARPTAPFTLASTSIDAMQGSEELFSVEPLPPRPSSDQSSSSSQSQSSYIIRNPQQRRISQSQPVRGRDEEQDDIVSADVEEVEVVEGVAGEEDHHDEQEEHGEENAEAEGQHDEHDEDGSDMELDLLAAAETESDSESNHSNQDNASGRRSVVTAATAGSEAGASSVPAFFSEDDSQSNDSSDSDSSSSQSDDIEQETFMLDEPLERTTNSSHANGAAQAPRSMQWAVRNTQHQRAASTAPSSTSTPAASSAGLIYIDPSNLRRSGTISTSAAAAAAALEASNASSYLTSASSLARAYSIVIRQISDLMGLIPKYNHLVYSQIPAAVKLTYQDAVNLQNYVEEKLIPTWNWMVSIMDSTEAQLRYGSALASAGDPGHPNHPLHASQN
# T3: EDDF1c (EDD aa 1-419) (human, UniProt O95071 1-419)
# T3 construct: In vitro translated, 35S-labelled; Contains neither N-terminal NLS
# T3 sequence: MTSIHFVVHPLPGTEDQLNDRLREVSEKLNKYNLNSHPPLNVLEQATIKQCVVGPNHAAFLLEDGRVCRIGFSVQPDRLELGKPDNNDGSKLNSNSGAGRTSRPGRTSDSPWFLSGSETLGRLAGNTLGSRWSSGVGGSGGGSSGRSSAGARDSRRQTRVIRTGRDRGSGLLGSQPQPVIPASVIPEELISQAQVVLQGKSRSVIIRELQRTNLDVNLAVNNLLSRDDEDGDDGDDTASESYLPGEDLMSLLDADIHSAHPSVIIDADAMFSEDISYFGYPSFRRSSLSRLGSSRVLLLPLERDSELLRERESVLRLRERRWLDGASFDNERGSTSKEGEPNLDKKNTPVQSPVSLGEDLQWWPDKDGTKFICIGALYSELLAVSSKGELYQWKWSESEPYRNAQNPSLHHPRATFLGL
# B1: FLAG-tagged CIB (full-length CIB in pCMVTag2C) (other, not shown: small tags and cut ends)
# chain: MGGSGSRLSKELLAEYQDLTFLTKQEILLAHRRFCELLPQEQRTVESSLRAQVPFEQILSLPELKANPFKERICRVFSTSPAKDSLSFEDFLDLLSVFSDTATPDIKSHYAFRIFDFDDDGTLNREDLSRLVNCLTGEGEDTRLSASEMKQLIDNILEESDIDRDGTINLSEFQHVISRSPDFASSFKIVL
# notes: Expressed in HEK 293 cells overexpressing EDDM
# B2: GAL4 AD-CIB fusion, full length CIB/KIP (other, not shown: large carriers)
# chain: B1 chain
# notes: Yeast two-hybrid prey clone from a human placenta cDNA library; also called CIB/KIP full-length clones
# B3: GAL4 AD-importin α5 fusion, aa 229-538 (Impα-C) (other, not shown: large carriers)
# chain: TRNAVWALSNLCRGKSPPPEFAKVSPCLNVLSWLLFVSDTDVLADACWALSYLSDGPNDKIQAVIDAGVCRRLVELLMHNDYKVVSPALRAVGNIVTGDDIQTQVILNCSALQSLLHLLSSPKESIKKEACWTISNITAGNRAQIQTVIDANIFPALISILQTAEFRTRKEAAWAITNATSGGSAEQIKYLVELGCIKPLCDLLTVMDSKIVQVALNGLENILRLGEQEAKRNGTGINPYCALIEEAYGLDKIEFLQSHENQEIYQKAFDLIEHYFGTEDEDSSIAPQVDLNQQQYIFQQCEAPMEGFQL
# notes: Yeast two-hybrid prey clone; also called amino-truncated importin α5; truncated importin α5 clone
# B4: GSTchk2-N derivative containing an R117A substitution (other)
# chain: MSRESDVEAQQSHGSSACSQPHGSVTQSQGSSSQSQGISSSSTSTMPNSSQSSHSSSGTLSSLETVSTQELYSIPEDQEPEDQEPEEPTPAPWARLWALQDGFANLECVNDNYWFGADKSCEYCFDEPLLKRTDKYRTYSKKHFRIFREVGPKNSYIAYIEDHSGNGTFVNTELVGKGKRRPLNNNSEIALSLSRNKVFVFFDLTVDDQSVYPKALRDEYIMSKT
# notes: also called GSTchk2-N R117A; R117A mutant; not shown: GST fusion partner at the N end and any vector linker
# B5: GST fused to amino acids 263-538 of human importin α5 (NPI-1) (other)
# chain: LFVSDTDVLADACWALSYLSDGPNDKIQAVIDAGVCRRLVELLMHNDYKVVSPALRAVGNIVTGDDIQTQVILNCSALQSLLHLLSSPKESIKKEACWTISNITAGNRAQIQTVIDANIFPALISILQTAEFRTRKEAAWAITNATSGGSAEQIKYLVELGCIKPLCDLLTVMDSKIVQVALNGLENILRLGEQEAKRNGTGINPYCALIEEAYGLDKIEFLQSHENQEIYQKAFDLIEHYFGTEDEDSSIAPQVDLNQQQYIFQQCEAPMEGFQL
# notes: also called GST-importin α5; GST-importin α; not shown: glutathione S-transferase (GST) fusion partner from a bacterial plasmid
# Legend:
# [1] = biological target: T4, EDDM, full length EDD with Cys2768 to Ala mutation (human, UniProt O95071 1-2799); experiment: anti-FLAG M2 immunoprecipitation from HEK 293 cells overexpressing mutant EDD, EDD western blot
# T4 construct: Stably overexpressed in HEK 293 cells (FLAG-CIB co-immunoprecipitation) or transfected for reporter assays; also called mutant EDD; ligase-defective EDD mutant
# Procedure: Left, HEK 293 cells overexpressing mutant EDD were transfected with a plasmid encoding Flag-tagged CIB or empty vector (vec). Extracts from these cells were subjected to immunoprecipitation using anti-FLAG Ab M2. Right, nuclear extracts prepared from MCF-7 cells following treatment with DNA damage agents phleomycin (Phleo) or hydroxyurea (HU) were incubated with either GST or GST-CIB fusion protein bound to glutathione-Sepharose beads. Bound proteins from both procedures were analysed by SDS-PAGE and western blotted for EDD and amounts bound are indicated as percentages relative to input.
# Stable HEK 293 cells overexpressing EDDM were transfected with pCMVTag2C-CIB or empty vector using Fugene 6 reagent (Roche) for 24 h. Following 6 h incubation in the presence of MG132, cells were harvested and lysates prepared and one mg total protein incubated with anti-FLAG antibody M2 coupled to Sepharose (Sigma Chemical Co., St Louis, USA) for 2 h at 4° C. Beads were recovered by centrifugation and washed extensively in lysis buffer. Western blotting for EDD has been described (Callaghan et al, Oncogene 17, 3479-3491, 1998).
# [2] = biological target: T5, GAL4 DBD-EDDM fusion (full length EDD C2768A mutant bait) (yeast; human, UniProt O95071 1-2799); experiment: yeast two-hybrid screen
# T5 construct: Bait for the yeast two-hybrid screen of a human placenta cDNA library; also called full length EDDM (C2768A mutant) bait
# Text: The cDNAs for full length EDD mutant and carboxy domain mutants (EDDM and EDD5M) were screened against a human placenta cDNA library in the pACT2 vector by the yeast two-hybrid method (Matchmaker 2, Clontech, Palo Alto, Calif., USA). Stable transformants of Saccharomyces cerevisiae strain Y190 expressing EDD fusion protein were transformed with the library using the lithium acetate method and 2-3×10⁶ primary transformants selected on his-leu-trp-plates. Following a second round of selection on the same medium, colonies were assayed for β.galactosidase activity using a filter-based assay. Interacting plasmids that were positive for β.galactosidase only in the presence of the EDD bait plasmids were transformed into E. coli DH5α cells for further analysis. […] Sequences were analysed by Blast searches of the Genbank and EMBL databases and predicted proteins analysed for motifs using the ISREC Profile Scan Server (www.isrec.isb-sib.ch).
# Further yeast two-hybrid screening was aimed at identifying other proteins involved in the ubiquitinylation or coactivation functions of EDD. […] The interaction between CIB and full length EDD initially detected in the yeast two-hybrid system (FIG. 10A) was confirmed by pull-down of in vitro translated EDD proteins with GST-CIB (FIG. 10B). […]
# [3] = biological target: T5, GAL4 DBD-EDDM fusion (full length EDD …); experiment: yeast two-hybrid screen; truncated clone
# Text: The cDNAs for full length EDD mutant and carboxy domain mutants (EDDM and EDD5M) were screened against a human placenta cDNA library in the pACT2 vector by the yeast two-hybrid method (Matchmaker 2, Clontech, Palo Alto, Calif., USA). Stable transformants of Saccharomyces cerevisiae strain Y190 expressing EDD fusion protein were transformed with the library using the lithium acetate method and 2-3×10⁶ primary transformants selected on his-leu-trp-plates. Following a second round of selection on the same medium, colonies were assayed for β.galactosidase activity using a filter-based assay. Interacting plasmids that were positive for β.galactosidase only in the presence of the EDD bait plasmids were transformed into E. coli DH5α cells for further analysis. Manual sequencing was carried out using ³³P end-labelled primer in conjunction with the fmol Cycle sequencing kit (Promega Corp., Madison, Wis., USA). Sequences were analysed by Blast searches of the Genbank and EMBL databases and predicted proteins analysed for motifs using the ISREC Profile Scan Server (www.isrec.isb-sib.ch).
# [4] = biological target: T6, EDDF5, central plus C-terminal domains of EDD (aa 889-2799) (human, UniProt O95071 889-2799, binding suggested to be mediated by a phosphorylated threonine residue; residue not identified); experiment: GST pull-down of IVT 35S-EDDF5
# T6 construct: In vitro translated, 35S-labelled; also called carboxyl two-thirds of EDD
# Procedure: (§1) To determine the requirement for the chk2 FHA domain in this interaction, the binding between EDD and GSTchk2-N and two mutants was assessed. The R117A mutant contains a substitution within the FHA domain and involves a residue directly required for phosphothreonine binding.
# [5] = biological target: T7, EDD protein, full length (aa 1-2799) (human, UniProt O95071 1-2799, EDD is phosphorylated in cells; the residue involved has not yet been identified); experiment: GST pull-down from MCF-7 nuclear extracts, EDD western blot
# T7 construct: also called in vitro translated 35S-labelled EDD; endogenous EDD
# Procedure: For GST fusion protein pull-down of endogenous or recombinant EDD from cell lysates, 0.5 to 1 mg total protein was incubated with 5 μg GST or GST fusion protein bound to glutathione beads for 1-2 h at 4° C. Beads were washed extensively in 1% Triton X-100 lysis buffer and bound proteins resolved by SDS-PAGE and detected by immunoblotting with EDD antisera (Callaghan et al, Oncogene 17, 3479-3491, 1998). For immunoprecipitation, 10 μl importin α5 antisera (Peter Palese, Mount Sinai School of Medicine) was incubated with 0.5 to 1 mg cell lysate (4° C. for 1 h). Antibody conjugates were captured on protein A sepharose beads (4° C. for 1 h) and washed extensively in lysis buffer. Bound proteins were resolved by SDS-PAGE followed by immunoblotting with EDD antisera.
# as §1
# [6] = biological target: T1, EDDF3, carboxy domain of EDD (aa …); experiment: GST-importin α5 pull-down of IVT 35S-EDD fragments
# [7] = biological target: T2, EDDF2, central domain of EDD (aa …); experiment: GST-importin α5 pull-down of IVT 35S-EDD fragments
# [8] = biological target: T3, EDDF1c (EDD aa 1-419); experiment: GST-importin α5 pull-down of IVT N-terminal EDD derivatives
binder,measurement,setting,value
B1,binding result,[1],binds
B2,binding result,[2],binds
B3,binding result,[3],binds
B4,binding result,[4],no binding
same,binding result,[5],no binding
B5,binding result,[6],no binding
same,binding result,[7],no binding
same,binding result,[8],no binding
